# Assay results taken from PMC11310380 (Cell reports, 2024).
# Molecular target: the molecule itself
# Experiment: cross-linking
protein,measurement,value
"P9-hTTN3 (human Tentonin 3/TMEM150C with the P9 sequence at its N terminus) (natural protein, UniProt B9EJG8 1-249, looked up) MDGKKCSVWMFLPLVFTLFTSAGLWIVYFIAVEDDKILPLNSAERKPGVKHAPYISIAGDDPPASCVFSQVMNMAAFLALVVAVLRFIQLKPKVLNPWLNISGLVALCLASFGMTLLGNFQLTNDEEIHNVGTSLTFGFGTLTCWIQAALTLKVNIKNEGRRVGIPRVILSASITLCVVLYFILMAQSIHMYAARVQWGLVMCFLSYFGTFAVEFRHYRYEIVCSEYQENFLSFSESLSEASEYQTDQV",stoichiometry N,4
